Source: patent US7407939B2, “Protein kinase inhibitors comprising ATP mimetics conjugated to peptides or peptidomimetics” (CureGenics Ltd., priority 2001, dated 2008)
Where two headings read alike, the source gives them in different places. *1 amine or outer side, *2 acyl side, *3 side chain or, on linkers, in order; H or OH if unused. Where a SMILES comes first, the peptide text is derived from it. Where no end group is shown, it is not given here. Side-chain parts run from the residue outwards. [ ]: non-standard residue; d: D form. The star is where a group is joined. ξ: configuration not given here. SO2‑IQ = 5-aminoethylsulfoneamide isoquinoline, O=S(=O)(NCCN*)c1cccc2cnccc12; X1 = 5‑aminoethylsulfonamide isoquinoline, O=S(=O)(NCCN*)c1cccc2cnccc12; Isoquinoline5sulfonyl = O=S(=O)(c1cccc2cnccc12)*; Ethylenediamine = C(CN[*:2])N[*:1]; hLeu = CC(C)CC[C@H](N)C(=O)O; Nle = CCCC[C@H](N)C(=O)O; Orn = NCCC[C@H](N)C(=O)O; Dab = NCC[C@H](N)C(=O)O; Nva = CCC[C@H](N)C(=O)O; ξE = NC(CCC(=O)O)C(=O)O; Abu = CC[C@H](N)C(=O)O; Dap = NC[C@H](N)C(=O)O; GlyNH2 = aminoglycine; βAla = NCCC(=O)O

Target: T1, PKB (Homo sapiens, UniProt P31749)
T1 construct: His; HA; made in house
T1 sequence (P31749 whole entry, species assumed): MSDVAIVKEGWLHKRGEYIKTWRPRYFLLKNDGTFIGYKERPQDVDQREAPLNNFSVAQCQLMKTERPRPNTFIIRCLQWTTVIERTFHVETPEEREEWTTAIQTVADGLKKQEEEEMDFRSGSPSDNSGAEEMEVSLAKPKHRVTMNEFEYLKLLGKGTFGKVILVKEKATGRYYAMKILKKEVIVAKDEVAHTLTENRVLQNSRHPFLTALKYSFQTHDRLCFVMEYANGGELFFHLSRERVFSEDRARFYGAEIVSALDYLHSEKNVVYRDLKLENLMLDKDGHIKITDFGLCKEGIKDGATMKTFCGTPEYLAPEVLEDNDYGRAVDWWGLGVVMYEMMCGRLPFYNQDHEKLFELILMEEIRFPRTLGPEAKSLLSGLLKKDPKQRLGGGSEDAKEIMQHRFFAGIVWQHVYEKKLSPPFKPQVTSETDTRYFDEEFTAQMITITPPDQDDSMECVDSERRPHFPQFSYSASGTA
Test: PKB in vitro kinase activity assay (soluble His-HA-PKB / SPA bead screening)
Type: biochemical
Set-up: % Inhibition PKB I / % Inhibition PKB II: concentration or dose not given beside the values
Details: for PKB-kinase (spa) Assay 1, % inhibition of kinase activity / PKB-kinase (spa) Assay 2, % inhibition of kinase activity: 1 μM compound concentration

[1] = plate screening, peptide moiety alone
[2] = chimeric PTR compounds (peptide conjugated to isoquinoline small molecule), read-out: PKB IC50

Method: The enzyme activity measurement is performed as described in the assay for PKA.
Kinase reaction was carried out in final volume of 50 μl. […] The kinase reaction was started by adding 10 μl of 2 μM cold ATP and 0.25 μCi of [γ^33P]-ATP in kinase buffer. The plates were incubated at 27° C. for 1 hr. At the end of the incubation the reaction was stopped by 200 μl of PBS containing 0.1% Triton X-100, 5 mM EDTA, 1 mM ATP and 0.3 mg/ml of Streptavidin-coated SPA bead (Amersham Pharmacia Biotech). After 15 min incubation at room temperature, the reaction mixtures were filtered using Packard GF/B 96-well plates. The plates were washed twice with 2M NaCl and 1% orthophosphoric acid followed by ethanol wash and 1 h air-dry. The radioactivity was counted using microplate counter Packard Top Count

Row | Molecule | PKB-kinase (spa) Assay 1, % inhibition of kinase activity [%] | PKB-kinase (spa) Assay 2, % inhibition of kinase activity [%] | also measured
1 | 60020-8: Arg-Pro-Arg-Dap-Glu(5-aminoethylsulfonamide isoquinoline)-Nva-Hol (RPR[Dap]E(X1)[Nva][hLeu]) | 18 | 0 | 
2 | 60020-39: Arg-Pro-Arg-Dap-Glu(Gly-5-aminoethylsulfonamide isoquinoline)-Nva-Phe (RPR[Dap]E([Gly-X1])[Nva]F) | 17 | 16 | 
3 | 60020-17: Arg-Pro-Arg-Abu-Glu(5-aminoethylsulfonamide isoquinoline)-Dab-Phe (RPR[Abu]E(X1)[Dab]F) | 34 | 38 | 
4 | 60020-81: Arg-Pro-Arg-Abu-Glu(bAla-5-aminoethylsulfonamide isoquinoline)-Dab-Phe (RPR[Abu]E([βAla-X1])[Dab]F) | −17 | 42 | 
5 | 60020-87: Arg-Pro-Arg-Abu-Glu(bAla-5-aminoethylsulfonamide isoquinoline)-Nva-Phe (RPR[Abu]E([βAla-X1])[Nva]F) | −50 | 5 | 
6 | 60020-22: Arg-Pro-Arg-Abu-Glu(5-aminoethylsulfonamide isoquinoline)-Ala-Hol (RPR[Abu]E(X1)A[hLeu]) | −5 | −2 | 
7 | 60020-84: Arg-Pro-Arg-Abu-Glu(bAla-5-aminoethylsulfonamide isoquinoline)-Orn-Hol (RPR[Abu]E([βAla-X1])[Orn][hLeu]) | 10 | 51 | 
8 | 60020-24: Arg-Pro-Arg-Abu-Glu(5-aminoethylsulfonamide isoquinoline)-Nva-Hol (RPR[Abu]E(X1)[Nva][hLeu]) | −17 | −12 | 
9 | 60006-7B (RPR[Nva][GlyNH2][Abu][hLeu]) [Compound 60006-7B] |  |  | % Inhibition PKB I [1]: 53%; % Inhibition PKB II (plate screening, peptide moiety alone, PKB II): 47%
10 | 60020-47: Arg-Pro-Arg-Orn-Glu(Gly-5-aminoethylsulfonamide isoquinoline)-Nva-Phe (RPR[Orn]E([Gly-X1])[Nva]F) | 21 | 33 | 
11 | 60020-4: Arg-Pro-Arg-Dap-Glu(5-aminoethylsulfonamide isoquinoline)-Orn-Hol (RPR[Dap]E(X1)[Orn][hLeu]) | 34 | 53 | 
12 | 60020-54: Arg-Pro-Arg-Abu-Glu(Gly-5-aminoethylsulfonamide isoquinoline)-Ala-Hol (RPR[Abu]E([Gly-X1])A[hLeu]) | 34 | 45 | 
13 | 60020-66: Arg-Pro-Arg-Dap-Glu(bAla-5-aminoethylsulfonamide isoquinoline)-Dab-Hol (RPR[Dap]E([βAla-X1])[Dab][hLeu]) | 52 | 63 | 
14 | 60020-23: Arg-Pro-Arg-Abu-Glu(5-aminoethylsulfonamide isoquinoline)-Nva-Phe (RPR[Abu]E(X1)[Nva]F) | −3 | −8 | 
15 | 6106 (RPRT[Dap](SO2‑IQ)SF) [compound 6106] |  |  | IC50 [2]: 10 µM
16 | CCC[C@H](NC(=O)[C@H](CCCNC(=N)N)NC(=O)[C@@H]1CCCN1C(=O)[C@@H](N)CCCNC(=N)N)C(=O)N[C@@H](CCC(=O)NCCNS(=O)(=O)c1cccc2cnccc12)C(=O)N[C@@H](C)C(=O)N[C@@H](CCC(C)C)C(N)=O [compound 6150] (H-RPR[Nva]E([Ethylenediamine-Isoquinoline5sulfonyl])A[hLeu]-NH2; N-terminus assumed) |  |  | IC50 [2]: 25 µM
17 | 60020-70: Arg-Pro-Arg-Dap-Glu(bAla-5-aminoethylsulfonamide isoquinoline)-Ala-Hol (RPR[Dap]E([βAla-X1])A[hLeu]) | 57 | 68 | 
18 | 60020-13: Arg-Pro-Arg-Orn-Glu(5-aminoethylsulfonamide isoquinoline)-Ala-Phe (RPR[Orn]E(X1)AF) | 36 | 29 | 
19 | 60020-53: Arg-Pro-Arg-Abu-Glu(Gly-5-aminoethylsulfonamide isoquinoline)-Ala-Phe (RPR[Abu]E([Gly-X1])AF) | 20 | 13 | 
20 | 60020-80: Arg-Pro-Arg-Orn-Glu(bAla-5-aminoethylsulfonamide isoquinoline)-Nva-Hol (RPR[Orn]E([βAla-X1])[Nva][hLeu]) | 13 | 35 | 
21 | 60020-48: Arg-Pro-Arg-Orn-Glu(Gly-5-aminoethylsulfonamide isoquinoline)-Nva-Hol (RPR[Orn]E([Gly-X1])[Nva][hLeu]) | 10 | 22 | 
22 | 60020-88: Arg-Pro-Arg-Abu-Glu(bAla-5-aminoethylsulfonamide isoquinoline)-Nva-Hol (RPR[Abu]E([βAla-X1])[Nva][hLeu]) | −50 | 31 | 
23 | 60002-50 (RPRTSA[hLeu]) [Compound 60002-50] |  |  | % Inhibition PKB I [1]: 62%
24 | RPRTSDF [TY 60002-18, Arg-Pro-Arg-Thr-Ser-Asp-Phe] |  |  | Activity PKB (Table 3, linear 7-mer peptides): Not active
25 | 60020-26: Arg-Pro-Arg-Nle-Glu(5-aminoethylsulfonamide isoquinoline)-Dab-Hol (RPR[Nle]E(X1)[Dab][hLeu]) | 17 | 18 | 
26 | 60020-27: Arg-Pro-Arg-Nle-Glu(5-aminoethylsulfonamide isoquinoline)-Orn-Phe (RPR[Nle]E(X1)[Orn]F) | 63 | 25 | 
27 | C[C@@H](O)[C@H](NC(=O)[C@H](CCCNC(=N)N)NC(=O)[C@@H]1CCCN1C(=O)[C@@H](N)CCCNC(=N)N)C(=O)N[C@@H](CO)C(=O)NC(CCC(=O)NCCNS(=O)(=O)c1cccc2cnccc12)C(=O)N[C@@H](Cc1ccccc1)C(N)=O (stereo partly drawn) [PTR 6014] (H-RPRTS[ξE]([Ethylenediamine-Isoquinoline5sulfonyl])F-NH2) |  |  | IC50 (Table 2, chimeric compounds, read-out: Activity PKB): 25 µM
28 | 60020-28: Arg-Pro-Arg-Nle-Glu(5-aminoethylsulfonamide isoquinoline)-Orn-Hol (RPR[Nle]E(X1)[Orn][hLeu]) | 27 | 31 | 
29 | 60020-74: Arg-Pro-Arg-Orn-Glu(bAla-5-aminoethylsulfonamide isoquinoline)-Dab-Hol (RPR[Orn]E([βAla-X1])[Dab][hLeu]) | 33 | 41 | 
30 | 60020-29: Arg-Pro-Arg-Nle-Glu(5-aminoethylsulfonamide isoquinoline)-Ala-Phe (RPR[Nle]E(X1)AF) | 19 | 39 | 

Further lines, with some results ahead:

Row | PKB-kinase (spa) Assay 1, % inhibition of kinase activity [%] | PKB-kinase (spa) Assay 2, % inhibition of kinase activity [%] | Molecule | also measured
31 | 32 | 30 | 60020-65: Arg-Pro-Arg-Dap-Glu(bAla-5-aminoethylsulfonamide isoquinoline)-Dab-Phe (RPR[Dap]E([βAla-X1])[Dab]F) | 
32 | 23 | 3 | 60020-12: Arg-Pro-Arg-Orn-Glu(5-aminoethylsulfonamide isoquinoline)-Orn-Hol (RPR[Orn]E(X1)[Orn][hLeu]) | 
33 | 32 | 14 | 60020-6: Arg-Pro-Arg-Dap-Glu(5-aminoethylsulfonamide isoquinoline)-Ala-Hol (RPR[Dap]E(X1)A[hLeu]) | 
34 | −27 | −2 | 60020-85: Arg-Pro-Arg-Abu-Glu(bAla-5-aminoethylsulfonamide isoquinoline)-Ala-Phe (RPR[Abu]E([βAla-X1])AF) | 
35 | 36 | 57 | 60020-69: Arg-Pro-Arg-Dap-Glu(bAla-5-aminoethylsulfonamide isoquinoline)-Ala-Phe (RPR[Dap]E([βAla-X1])AF) | 
36 | 31 | 44 | 60020-15: Arg-Pro-Arg-Orn-Glu(5-aminoethylsulfonamide isoquinoline)-Nva-Phe (RPR[Orn]E(X1)[Nva]F) | 
37 | 23 | 35 | 60020-75: Arg-Pro-Arg-Orn-Glu(bAla-5-aminoethylsulfonamide isoquinoline)-Orn-Phe (RPR[Orn]E([βAla-X1])[Orn]F) | 
38 | −12 | 58 | 60020-93: Arg-Pro-Arg-Nle-Glu(bAla-5-aminoethylsulfonamide isoquinoline)-Ala-Phe (RPR[Nle]E([βAla-X1])AF) | 
39 | −9 | 56 | 60020-82: Arg-Pro-Arg-Abu-Glu(bAla-5-aminoethylsulfonamide isoquinoline)-Dab-Hol (RPR[Abu]E([βAla-X1])[Dab][hLeu]) | 
40 | 12 | 32 | 60020-32: Arg-Pro-Arg-Nle-Glu(5-aminoethylsulfonamide isoquinoline)-Nva-Hol (RPR[Nle]E(X1)[Nva][hLeu]) | 
